Source: PMC7652416, “Structural basis of ClpXP recognition and unfolding of ssrA-tagged substrates” (eLife, 2020)

Biological target: the molecule itself
Experiment: cryo-EM structure; single-chain ClpX^∆N (4 µM), ClpP (1.8 µM), ATPγS (2.5 mM) in 20 mM HEPES pH 7.5, 100 mM KCl, 25 mM MgCl2, 5 min at 25°C; equal volume of GFP-G3YG9SENYALAA (20 µM) and ATP (2.5 mM) added; vitrified within 15 s of final mixing

B1: E. coli ClpP (enzyme)
chain: not shown
notes: E. coli (strain K12) ClpP, UniProtKB P0A6G7; Double-ring tetradecamer of two heptameric rings; also called ClpP14; ClpP tetradecamer; source: recombinant (plasmid pT7 ClpP), purified as described (Kim et al., 2000; Bell et al., 2019); copies: 14
Q: How did the “stoichiometry N” value turn out when B1 was run?
A: Its value is 14.
